The values that follow come from doi:10.1101/2024.05.28.596221.

In the experiment the target is YjfP (K. pneumoniae). The experiment in a line: crystal structure.

A word on the stoichiometry N: it is the number of molecules, sites or subunits per partner or assembly. In turn, YjfP (enzyme) came in with a stoichiometry N of 2.
